The record followed here is the supplement of paper PMC9170038.

This series deals with MS2 coat protein. Description: apparent KD of MS2 coat protein; designed switch direction (-1 OFF switch, 1 ON switch): 1; higher = weaker reporter binding. In a few lines:
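RNA switches sharing common flanks were transcribed by stalled E. coli RNA polymerase on Illumina chips. A doubling series of SNAP-549-labelled MS2 coat protein, from 0.7 or 1.5 nM to 3 µM, was applied in Tris-HCl pH 7.5 buffer with KCl, MgCl2, BSA, DTT, tRNA and Tween-20. Each step lasted 0.8–1.5 h at the bottom of the series and 10–20 min at the top. Normalised cluster fluorescence was curve-fitted, giving apparent KD as the per-design median over clusters.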

The mark [1] stands for this setting: input ligand: microRNA oligo, concentration not stated.
Where [2] appears, read: Eterna round: R95, input ligand: FMN 200 uM.
Setting [3] is: Eterna round: R95, input ligand: microRNA oligo, concentration not stated.
Where [4] appears, read: Eterna round: R95, input ligand: none.

Consider “GUGGAGGGUUGAGGAUAUUGAAUACAUAUGUUUAACAUGAGGAUCACCCAUGUGGGUUGCGGUAUCGAGAAGGUAAAUUGCUGG [salish99_SSNG2_r04_037] (Eterna round: R96, puzzle: Same State NG 2)”, for which the “apparent KD of MS2 coat protein” value under setting [1] was 0.0721 µM.
For the sequence “GUGGCCCAGGCACAGGAUAUGUUUCUCGUAACAUGAGGAUCACCCAUGUGCCUAUGAGAUUUUAUGCAGAAGGGUGCACGCCACG [JL Atiinbe mod 01] (puzzle: Same State 2)”, the “apparent KD of MS2 coat protein” value is 0.0185 µM under setting [2], 0.056 µM under setting [3] and 0.123 µM under setting [4].
“GUGGUCAAUCAAGGAUAUGGAGCCUUAUUGGCUCCAGAAGGUGGGACAUGAGGAUCACCCAUGUGGCAGUGGUCAAAUGACCAC [Fiskers NG1ss - 34] (Eterna round: R96, puzzle: Same State NG 1)”: the “apparent KD of MS2 coat protein” value by setting is: (input ligand: FMN 200 uM) 0.149 µM; under setting [1], 0.172 µM; (input ligand: none) 0.164 µM.
For “GUGGUCAGACAUGAGGAUCACCCAUGUGGAAUAAAUAACAGACAGGAUAUGUAAUAUAAAAUAUAACAGAAGGGUCGAUUGGUG (Eterna round: R96, puzzle: Same State NG 3)”, in that order: 0.0796 µM, 0.0647 µM and 0.0939 µM.
For “GUGGUCAGACAUGAGGAUCACCCAUGUGGAAUAAAUAACGGACAGGAUAUAUAAUAUAGGAUAUAGUAGAAGGGUUGAUUGGUG (Eterna round: R96, puzzle: Same State NG 3)”, in that order: 0.0858 µM, 0.0577 µM and 0.0602 µM.
In the case of “GUGGUCAGACAUGAGGAUCACCCAUGUGGAAUAAAUAAGGAAUAGGAUAUCGAAUAUAGGAUAUACGAGAAGGGUUGGUUGGUG (Eterna round: R96, puzzle: Same State NG 3)”, the “apparent KD of MS2 coat protein” value under setting [1] stood at 0.08 µM.
Regarding “GUGGUCAGACAUGAGGAUCACCCAUGUGGAAUAAAUAAGGGAUAGGAUAUGGAAUAUAGGAUAUACCAGAAGGGUUGGUUGGUG (Eterna round: R96, puzzle: Same State NG 3)”, the “apparent KD of MS2 coat protein” value by setting is: (input ligand: FMN 200 uM) 0.107 µM; under setting [1], 0.0876 µM; (input ligand: none) 0.0951 µM.
The like results for “GUGGUGUAGAUACAGGAUAUGUUGCUCGUAACAUGAGGAUCACCCAUGUAUCUAUGAGAAUAAAUGCAGAAGGGUGCACACCACU [Mat - Same State 2 - Mod of UCT - D74] (Eterna round: R96, puzzle: Same State 2)” were, in that order, 0.0261 µM, 0.197 µM and 0.489 µM.
“GUGGUGUAGAUACAGGAUAUGUUGCUCGUAACAUGAGGAUCACCCAUGUAUCUAUGAGAAUAAAUGCAGAAGGGUGCACACCACU [Mat - Same State 2 - Mod of UCT - D74] (puzzle: Same State 2)”: the “apparent KD of MS2 coat protein” value runs as follows: under setting [2], 0.0247 µM; under setting [3], 0.467 µM; under setting [4], 0.639 µM.
Take “GUGUUACAUGAGGAUCACCCAUGUUGUUGUAGAUAAGGAUAUAUGGUAACGAGAGAAAUAAUAGAAGGUAUUAGGC [JR_SS1_Sub061] (puzzle: Same State 1)”: under setting [3], the “apparent KD of MS2 coat protein” value amounted to 0.0347 µM.
Take “GUUAAACAUGAGGAUCACCCAUGUCAAUGUAGUCGAGGAUAUGGGUAGCCAUGAGGCGUACUAGAAGGCGAGGAGU [Mat - Same State 1 - Mod of JL - D19] (puzzle: Same State 1)”: the “apparent KD of MS2 coat protein” value under setting [2] was 0.118 µM, the “apparent KD of MS2 coat protein” value under setting [3] is 0.0698 µM and the “apparent KD of MS2 coat protein” value under setting [4] came out at 0.0805 µM.
Regarding “GUUACAUGAGGAUCACCCAUGUAUGUGUGGGAGUAAGUGUCUUAGGAUAUCUAGUAGUUAAUUUAAGAGAAGGAAGAUUGUUGU [JMF's solution 55] (Eterna round: R96, puzzle: Same State NG 3)”, the “apparent KD of MS2 coat protein” value (input ligand: FMN 200 uM) turned out to be 0.145 µM, the “apparent KD of MS2 coat protein” value under setting [1] is 0.0819 µM and the “apparent KD of MS2 coat protein” value (input ligand: none) amounted to 0.104 µM.
The like results for “GUUACAUGAGGAUCACCCAUGUAUGUGUGGGAGUAAGUGUCUUAGGAUAUCUAGUAUUUAACUUAAGAGAAGGAAGAUUGUUGU [JMF's solution 63] (Eterna round: R96, puzzle: Same State NG 3)” were, in that order, 0.142 µM, 0.0958 µM and 0.105 µM.
For “GUUACAUGAGGAUCACCCAUGUAUGUGUGGGAGUAAGUGUCUUAGGAUAUCUAUUAGUUAAAUUAAGAGAAGGAAGAUUGUUGU [JMF's solution 15] (Eterna round: R96, puzzle: Same State NG 3)”, the “apparent KD of MS2 coat protein” value under setting [1] stood at 0.0914 µM.
On to “GUUACAUGAGGAUCACCCAUGUAUGUGUGGGAGUAAGUGUCUUAGGAUAUCUGUUAUUCAAUUUAAGAGAAGGAAGAUUGUUGU [JMF's solution 38] (Eterna round: R96, puzzle: Same State NG 3)”, for which the “apparent KD of MS2 coat protein” value by setting is: (input ligand: FMN 200 uM) 0.0971 µM; under setting [1], 0.0495 µM; (input ligand: none) 0.0765 µM.
As for “GUUCCACAUGAGGAUCACCCAUGUCACGAACACGCAGGAUAUUGCCUGAGUUUGGACAGGUAAGAAGGGUGAGAGA [Dibeante] (puzzle: Same State 1)”, the “apparent KD of MS2 coat protein” value under setting [2] came to 0.0643 µM, the “apparent KD of MS2 coat protein” value under setting [3] is 0.0319 µM and the “apparent KD of MS2 coat protein” value under setting [4] was 0.0289 µM.
As to “UAAAUAAAGUAAGGAUAUACAUGAGGAUUUCUCGUAGAAGGUACAAGACAUGAGGAUCACCCAUGUAUCGCUCGAAAGAGCGUA [Mat - Same State NG 1 - JL mod - D22] (Eterna round: R96, puzzle: Same State NG 1)”, the “apparent KD of MS2 coat protein” value (input ligand: FMN 200 uM) was 0.126 µM, the “apparent KD of MS2 coat protein” value under setting [1] came to 0.0675 µM and the “apparent KD of MS2 coat protein” value (input ligand: none) worked out at 0.208 µM.
On to “UAAAUAAUGUAAGGAUAUACAUGAGGAAUUCUCGUAGAAGGUACAUGACAUGAGGAUCACCCAUGUAUCGCUCCGUAGAGCGUA [Mat - Same State NG 1 - JL mod - D26] (Eterna round: R96, puzzle: Same State NG 1)”, for which the “apparent KD of MS2 coat protein” value turned out to be 0.288 µM (input ligand: FMN 200 uM), 0.00578 µM under setting [1] and 0.0488 µM (input ligand: none).
Turning to “UAAGUCAUGUAAGGAUAUGCAGCCGAAACGGCUGCAGAAGGUACUAUAAUUACAUGAGGAUCACCCAUGUUAUAAAAUUUAUAU [Mat - Same State NG 1 - JL mod - D77] (Eterna round: R96, puzzle: Same State NG 1)”, the “apparent KD of MS2 coat protein” value by setting is: (input ligand: FMN 200 uM) 0.0224 µM; under setting [1], 0.039 µM; (input ligand: none) 0.0545 µM.
For “UACAAUCUAUCUGAGGAUAUCAUGAAAAAAACAUGAGGAUCACCCAUGUGCAGGAAAACUGCAUAUGAGAAGGCAGAUAGAUUGA [salish99_SS2_r3_005] (Eterna round: R96, puzzle: Same State 2)”, under setting [1], the “apparent KD of MS2 coat protein” value came out at 0.517 µM.
For the sequence “UACAAUCUAUCUGAGGAUAUCAUGAAAAAAACAUGAGGAUCACCCAUGUGCAGGAAAACUGCAUAUGAGAAGGCAGAUAGAUUGA [salish99_SS2_r3_005] (puzzle: Same State 2)”, the “apparent KD of MS2 coat protein” value runs as follows: under setting [2], 0.0274 µM; under setting [3], 0.585 µM; under setting [4], 0.721 µM.
The like results for “UACAAUCUAUCUGAGGAUAUCAUGAAUAAAACAUGAGGAUCACCCAUGUGCAGGAUAACUGCAAAUGAGAAGGCAGAUAGAUUGU [Mat - Same State 2 - Mod - D8] (puzzle: Same State 2)” were, in that order, 0.0135 µM, 0.016 µM and 0.0241 µM.
The like results for “UAGAACAAGCUUUUUGCCCGUCUUAUAUAACAUGAGGAUCACCCAUGUAAGGUGAAAGUUAGAGAGUGGAGGUUGAA [JR_SHM208A_Sub048] (puzzle: Sensor for hsa-mir-208a)” were, in that order, 0.216 µM, 0.193 µM and 0.156 µM.
For “UAGAAUCUAUCUCAGGAUAUCAUGUCAAAGACAUGAGGAUCACCCAUGUACCAGGAAACUGGUUAUGAGAAGGGAGAUAGAUUCA [Mat - Same State 2 - Mod - D34] (puzzle: Same State 2)”, in that order: 0.124 µM, 0.0983 µM and 0.241 µM.
With “UAGAGAGGAAGCGAGGAUAUCGUGGGAGGGACAUGAGGAUCACCCAUGUAGGAUGUUGAGAGGAACGAGAAGGCGCAGGAAAGUA [JR_SS2_Sub076] (puzzle: Same State 2)”, the “apparent KD of MS2 coat protein” value reads like this: under setting [2], 0.0924 µM; under setting [3], 0.0635 µM; under setting [4], 0.0912 µM.
Turning to “UAGUACAAGCUUUUUGCUUGUCUUAUUUAACAUGAGGAUCACCCAUGUAAGUUGAAAGUUAGAGAGUGCACCUUCAA [JR_SHM208A_Sub052] (Eterna round: R96, puzzle: Sensor for hsa-mir-208a)”, the “apparent KD of MS2 coat protein” value stood at 0.0172 µM (input ligand: FMN 200 uM), 0.017 µM under setting [1] and 0.0216 µM (input ligand: none).
Consider “UAGUACAAGCUUUUUGCUUGUCUUAUUUAACAUGAGGAUCACCCAUGUAAGUUGAAAGUUAGAGAGUGCACCUUCAA [JR_SHM208A_Sub052] (puzzle: Sensor for hsa-mir-208a)”, for which the “apparent KD of MS2 coat protein” value runs as follows: under setting [2], 0.0187 µM; under setting [3], 0.0189 µM; under setting [4], 0.0171 µM.
In the case of “UAGUAUCAACGAGGAUAUAAUAUGUUCAAUUUUUUAUAUUGUUUACAUGAGGAUCACCCAUGUUAUUAGAAGGCGUAUGGGAUU [JR_SSNG2_Sub083] (Eterna round: R96, puzzle: Same State NG 2)”, under setting [1], the “apparent KD of MS2 coat protein” value worked out at 0.0472 µM.
Still for that read-out and setting: for “UAGUAUUAGCGAGGAUAUCGUAUGUUCAAUUUUUUAUAUUGUUUACAUGAGGAUCACCCAUGUUACGAGAAGGCGCAUGGGAUU [JR_SSNG2_Sub081] (Eterna round: R96, puzzle: Same State NG 2)” the value was 0.371 µM.
